Where no end group is shown, it is not given here.
Assays:
[1] = molecular target: T1, GST-hDM2 (residues 1-188) (human, UniProt Q00987 1-188); experiment: competition with 10 nM p53AD-Flu for 400 nM GST-hDM2; fraction of p53AD-Flu bound at equilibrium
T1 construct: also called human oncoprotein double minute two; not shown: glutathione S-transferase (GST) fusion partner

[2] = molecular target: Carbonic anhydrase II (Sigma); experiment: fluorescence titration of the labeled peptide, PBS
[3] = molecular target: T2, Human recombinant Bcl-2 (1-205), soluble GST-fusion (human, UniProt P10415 1-205); experiment: change of fluorescence emission of the fluorescein-labeled peptide on titration with Bcl-2, 4°C, PBS
T2 construct: Bought from Santa Cruz Biotechnology; also called GST-Bcl-2; not shown: glutathione S-transferase (GST) fusion partner

Calmodulin (Sigma) = Calmodulin (Sigma) (Homo sapiens (Human), UniProt P0DP23 2-149); experiment: fluorescence titration of the labeled peptide; buffer with 130 mM KCl, 1 mM CaCl2

T1 sequence (Q00987 1-188): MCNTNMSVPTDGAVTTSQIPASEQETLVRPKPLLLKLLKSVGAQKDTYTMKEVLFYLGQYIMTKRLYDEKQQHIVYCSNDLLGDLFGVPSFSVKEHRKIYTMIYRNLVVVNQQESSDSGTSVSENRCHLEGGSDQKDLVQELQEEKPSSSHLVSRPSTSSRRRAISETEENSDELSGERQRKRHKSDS
T2 sequence (P10415 1-205): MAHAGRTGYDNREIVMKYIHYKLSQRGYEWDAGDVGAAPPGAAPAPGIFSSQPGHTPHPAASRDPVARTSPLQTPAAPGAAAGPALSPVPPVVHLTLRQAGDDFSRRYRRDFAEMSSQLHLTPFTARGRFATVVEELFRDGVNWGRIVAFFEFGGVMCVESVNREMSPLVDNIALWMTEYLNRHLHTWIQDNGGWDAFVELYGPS

Row | Ki [1] [µM] | Kd [2] [µM] | Kd [3] [µM] | Kd (Calmodulin (Sigma)) [µM] | Binder
1 | 0.722 | – | – | – | GPSQPTYPGDDAPVEDLIRFKFLLQWYLLAL (designed binder, also called p3559) [pZutshi, as competitor (not labeled)]
2 | – | 22 | 0.363 | 25 | GQVGRQLAIIGDDINRYC(5‑iodoacetamidofluorescein)-NH2 (also called Bak BH3 peptide; Bak 72-94) [Bak peptide, fluorescein-labeled form with additional carboxy-terminal YC]
